In patent US20170015742A1 (published 2017):

What was measured:
[1] = biological target: VEGF-A (UniProt P15692-4 27-191, limits assumed); assay: SPR (Biacore), DVD-Ig captured by anti-human Fc, antigen in flow
Protocol: (§1) For example, approximately 9000 RU of goat anti-human Fc specific polyclonal antibody (Thermo Fisher Scientific Inc., Rockford, Ill.) diluted in 10 mM sodium acetate (pH 4.5) is directly immobilized across a CM5 research grade biosensor chip using a standard amine coupling kit according to manufacturer's instructions and procedures at 25 μg/ml. Unreacted moieties on the biosensor surface were blocked with ethanolamine. For kinetic analysis, rate equations derived from the 1:1 Langmuir binding model were fitted simultaneously to multiple antigen injections (using global fit analysis) with the use of Scrubber 2 (BioLogic Software), Biacore Biaevaluation 4.0.1 software or Biacore T100 Evaluation software. Purified antibodies or DVD-Ig molecules were diluted in running buffer for capture across goat anti-human Fc reaction surfaces. Antibodies or DVD-Ig molecules to be captured as a ligand (1 μg/ml) were injected over reaction matrices at a flow rate of 10 μl/minute. During the assay, all measurements were referenced against the capture surface alone (i.e., with no captured antibody or DVD-Ig molecule). […] The equilibrium dissociation constant KD (M) of the reaction between antibodies and the target antigen was then calculated from the kinetic rate constants by the following formula: KD=Koff/Kₒₙ. Binding was recorded as a function of time and kinetic rate constants were calculated.

[2] = biological target: PDGF-BB (UniProt P01127 82-190); assay: as above
Chain of PDGF-BB (UniProt P01127 82-190) (P01127 82-190): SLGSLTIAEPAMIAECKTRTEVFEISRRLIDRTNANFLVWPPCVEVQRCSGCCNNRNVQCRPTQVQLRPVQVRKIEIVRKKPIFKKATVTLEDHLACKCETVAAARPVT
Protocol: as §1

[3] = biological target: T1, VEGF-A (human, UniProt P15692 207-395); assay: Biacore SPR; DVD-Ig captured on anti-human Fc, antigen injected
T1 construct: also called hVEGF165
T1 sequence (P15692 other isoform, or with tags, fused parts or gaps limits assumed): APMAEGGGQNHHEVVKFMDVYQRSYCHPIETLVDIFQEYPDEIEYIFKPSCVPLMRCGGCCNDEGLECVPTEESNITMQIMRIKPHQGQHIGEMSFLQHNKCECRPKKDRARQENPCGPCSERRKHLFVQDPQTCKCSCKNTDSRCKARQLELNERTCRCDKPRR
Summary of the method: (§2)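 Antibodies or DVD-Ig molecules (1 μg/ml) were captured on an anti-human Fc CM5 surface, with antigen injected in solution and responses referenced to the capture-only surface. Rate constants came from a global 1:1 Langmuir fit, and KD = koff/kon.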

[4] = biological target: T2, PDGF-BB (human, UniProt P01127 82-190, limits assumed); assay: as above
T2 construct: also called human PDGF-BB; hPDGF-BB
T2 sequence (P01127 82-190 limits assumed): as the sequence (P01127 82-190) above
Summary of the method: as §2

Chain of VEGF-A (UniProt P15692-4 27-191, limits assumed) (P15692 other isoform, or with tags, fused parts or gaps limits assumed): as the sequence (P15692 other isoform, or with tags, fused parts or gaps limits assumed) above

B1: 9E8.4-GS-4G8.3 (PR-1563988) (bispecific antibody, human IgG1, kappa, L234A L235A)
heavy: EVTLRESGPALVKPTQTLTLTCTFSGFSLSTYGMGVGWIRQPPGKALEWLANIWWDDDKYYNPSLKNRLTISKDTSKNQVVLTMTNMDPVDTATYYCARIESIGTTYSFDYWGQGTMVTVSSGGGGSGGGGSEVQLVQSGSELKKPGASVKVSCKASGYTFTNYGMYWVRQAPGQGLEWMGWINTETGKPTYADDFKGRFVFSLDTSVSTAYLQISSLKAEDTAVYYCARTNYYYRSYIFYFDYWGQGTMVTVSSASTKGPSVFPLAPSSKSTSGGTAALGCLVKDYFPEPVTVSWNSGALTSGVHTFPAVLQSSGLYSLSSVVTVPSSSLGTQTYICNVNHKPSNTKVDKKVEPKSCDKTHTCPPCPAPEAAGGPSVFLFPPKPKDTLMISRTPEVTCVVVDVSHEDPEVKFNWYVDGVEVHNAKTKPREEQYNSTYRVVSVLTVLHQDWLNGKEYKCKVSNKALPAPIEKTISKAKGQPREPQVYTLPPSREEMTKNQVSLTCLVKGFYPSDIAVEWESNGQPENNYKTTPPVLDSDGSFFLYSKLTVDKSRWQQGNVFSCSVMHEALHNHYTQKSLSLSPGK
light: EFVLTQSPGTLSLSPGERATLSCERSSGDIGDSYVSWYQQKPGQAPRLVIYADDQRPSGIPDRFSGSGSGTDFTLTISRLEPEDFAVYYCQSYDINIDIVFGGGTKVEIKGGGSGGGGSGDTVLTQSPATLSLSPGERATLSCRASESVSTHMHWYQQKPGQAPRLLIYGASNLESGVPARFSGSGSGTDFTLTISSLEPEDFAVYFCQQSWNDPFTFGQGTKLEIKRTVAAPSVFIFPPSDEQLKSGTASVVCLLNNFYPREAKVQWKVDNALQSGNSQESVTEQDSKDSTYSLSSTLTLSKADYEKHKVYACEVTHQGLSSPVTKSFNRGEC
notes: DVD-Ig; outer hBDI-9E8.4 (PDGF), linkers GS-H10/GS-L10, inner hBDB-4G8.3 (VEGF); human IgG1 L234A, L235A / kappa
[1]
  Kd: 0.29 nM
  kon: 220000 M⁻¹ s⁻¹
[2]
  Kd: 0.02 nM
  kon: 1e+07 M⁻¹ s⁻¹

B2: 9E8.4-SS-4G8.3 (PR-1563990) (bispecific antibody, human IgG1, kappa, L234A L235A)
heavy: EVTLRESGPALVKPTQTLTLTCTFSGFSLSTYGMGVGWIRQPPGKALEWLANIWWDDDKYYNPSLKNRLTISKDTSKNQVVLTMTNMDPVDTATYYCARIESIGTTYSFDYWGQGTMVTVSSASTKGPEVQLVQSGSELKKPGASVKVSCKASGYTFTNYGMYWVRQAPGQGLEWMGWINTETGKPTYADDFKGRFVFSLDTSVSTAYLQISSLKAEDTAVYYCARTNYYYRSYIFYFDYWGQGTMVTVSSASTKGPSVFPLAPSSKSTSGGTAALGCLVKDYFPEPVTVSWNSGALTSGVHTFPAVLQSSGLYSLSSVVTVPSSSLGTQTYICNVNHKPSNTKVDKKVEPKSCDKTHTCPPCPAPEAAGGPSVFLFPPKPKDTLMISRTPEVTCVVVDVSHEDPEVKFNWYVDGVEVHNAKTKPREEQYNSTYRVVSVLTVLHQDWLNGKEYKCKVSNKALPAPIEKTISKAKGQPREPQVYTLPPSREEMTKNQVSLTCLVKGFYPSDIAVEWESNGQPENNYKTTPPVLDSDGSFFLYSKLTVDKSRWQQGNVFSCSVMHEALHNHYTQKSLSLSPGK
light: EFVLTQSPGTLSLSPGERATLSCERSSGDIGDSYVSWYQQKPGQAPRLVIYADDQRPSGIPDRFSGSGSGTDFTLTISRLEPEDFAVYYCQSYDINIDIVFGGGTKVEIKGTVAAPDTVLTQSPATLSLSPGERATLSCRASESVSTHMHWYQQKPGQAPRLLIYGASNLESGVPARFSGSGSGTDFTLTISSLEPEDFAVYFCQQSWNDPFTFGQGTKLEIKRTVAAPSVFIFPPSDEQLKSGTASVVCLLNNFYPREAKVQWKVDNALQSGNSQESVTEQDSKDSTYSLSSTLTLSKADYEKHKVYACEVTHQGLSSPVTKSFNRGEC
notes: DVD-Ig; outer hBDI-9E8.4 (PDGF), linkers HG-short/LK-short, inner hBDB-4G8.3 (VEGF); human IgG1 L234A, L235A / kappa
[1]
  Kd: 0.78 nM
  kon: 160000 M⁻¹ s⁻¹
[2]
  Kd: 0.02 nM
  kon: 1e+07 M⁻¹ s⁻¹

B3: 9E8.4-SL-4G8.3 (PR-1563998) (bispecific antibody, human IgG1, kappa, L234A L235A)
heavy: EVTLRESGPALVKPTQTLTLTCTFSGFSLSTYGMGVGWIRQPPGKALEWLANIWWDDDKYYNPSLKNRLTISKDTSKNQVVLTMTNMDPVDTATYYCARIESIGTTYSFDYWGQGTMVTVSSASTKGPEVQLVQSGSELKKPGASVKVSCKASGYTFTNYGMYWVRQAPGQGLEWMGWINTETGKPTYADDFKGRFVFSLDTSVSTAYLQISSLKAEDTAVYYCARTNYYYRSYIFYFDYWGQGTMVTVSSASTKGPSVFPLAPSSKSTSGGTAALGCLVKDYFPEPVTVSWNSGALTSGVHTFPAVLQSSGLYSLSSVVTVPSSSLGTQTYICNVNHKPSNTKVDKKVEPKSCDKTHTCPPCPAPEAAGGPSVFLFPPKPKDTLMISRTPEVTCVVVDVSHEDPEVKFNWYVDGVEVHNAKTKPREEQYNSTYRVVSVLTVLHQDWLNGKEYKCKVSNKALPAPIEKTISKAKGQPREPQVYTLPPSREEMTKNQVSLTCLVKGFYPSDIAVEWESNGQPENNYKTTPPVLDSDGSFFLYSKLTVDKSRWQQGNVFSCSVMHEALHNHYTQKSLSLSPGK
light: EFVLTQSPGTLSLSPGERATLSCERSSGDIGDSYVSWYQQKPGQAPRLVIYADDQRPSGIPDRFSGSGSGTDFTLTISRLEPEDFAVYYCQSYDINIDIVFGGGTKVEIKGTVAAPSVFIFPPDTVLTQSPATLSLSPGERATLSCRASESVSTHMHWYQQKPGQAPRLLIYGASNLESGVPARFSGSGSGTDFTLTISSLEPEDFAVYFCQQSWNDPFTFGQGTKLEIKRTVAAPSVFIFPPSDEQLKSGTASVVCLLNNFYPREAKVQWKVDNALQSGNSQESVTEQDSKDSTYSLSSTLTLSKADYEKHKVYACEVTHQGLSSPVTKSFNRGEC
notes: DVD-Ig; outer hBDI-9E8.4 (PDGF), linkers HG-short/LK-long, inner hBDB-4G8.3 (VEGF); human IgG1 L234A, L235A / kappa
[1]
  Kd: 0.12 nM
  kon: 700000 M⁻¹ s⁻¹
[2]
  Kd: 0.019 nM
  kon: 1e+07 M⁻¹ s⁻¹

B4: 9E8.4-LS-4G8.3 (PR-1564009) (bispecific antibody, human IgG1, kappa, L234A L235A)
heavy: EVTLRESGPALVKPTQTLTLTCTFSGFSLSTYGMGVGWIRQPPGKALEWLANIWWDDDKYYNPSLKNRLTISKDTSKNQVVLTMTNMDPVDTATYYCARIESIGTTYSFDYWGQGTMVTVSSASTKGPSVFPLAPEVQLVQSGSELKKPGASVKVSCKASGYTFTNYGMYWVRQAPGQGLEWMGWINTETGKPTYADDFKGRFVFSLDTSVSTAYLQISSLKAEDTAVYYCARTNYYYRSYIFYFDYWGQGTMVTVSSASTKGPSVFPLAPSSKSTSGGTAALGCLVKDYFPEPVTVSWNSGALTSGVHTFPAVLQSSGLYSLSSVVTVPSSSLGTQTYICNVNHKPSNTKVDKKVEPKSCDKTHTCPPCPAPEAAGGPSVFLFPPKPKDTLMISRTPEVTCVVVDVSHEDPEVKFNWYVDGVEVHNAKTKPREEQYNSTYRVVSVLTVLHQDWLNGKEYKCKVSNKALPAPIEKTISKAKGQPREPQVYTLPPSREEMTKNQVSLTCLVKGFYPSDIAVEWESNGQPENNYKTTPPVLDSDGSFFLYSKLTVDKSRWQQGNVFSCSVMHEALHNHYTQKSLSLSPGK
light: EFVLTQSPGTLSLSPGERATLSCERSSGDIGDSYVSWYQQKPGQAPRLVIYADDQRPSGIPDRFSGSGSGTDFTLTISRLEPEDFAVYYCQSYDINIDIVFGGGTKVEIKGTVAAPDTVLTQSPATLSLSPGERATLSCRASESVSTHMHWYQQKPGQAPRLLIYGASNLESGVPARFSGSGSGTDFTLTISSLEPEDFAVYFCQQSWNDPFTFGQGTKLEIKRTVAAPSVFIFPPSDEQLKSGTASVVCLLNNFYPREAKVQWKVDNALQSGNSQESVTEQDSKDSTYSLSSTLTLSKADYEKHKVYACEVTHQGLSSPVTKSFNRGEC
notes: DVD-Ig; outer hBDI-9E8.4 (PDGF), linkers HG-long/LK-short, inner hBDB-4G8.3 (VEGF); human IgG1 L234A, L235A / kappa
[1]
  Kd: 0.2 nM
  kon: 270000 M⁻¹ s⁻¹
[2]
  Kd: 0.02 nM
  kon: 1e+07 M⁻¹ s⁻¹

B5: 4G8.3-GS(9)-9E8.4 (g) (PR-1572102) (bispecific antibody, human IgG1, kappa, L234A L235A)
heavy: EVQLVQSGSELKKPGASVKVSCKASGYTFTNYGMYWVRQAPGQGLEWMGWINTETGKPTYADDFKGRFVFSLDTSVSTAYLQISSLKAEDTAVYYCARTNYYYRSYIFYFDYWGQGTMVTVSSGGGGSGGGGSEVTLRESGPALVKPTQTLTLTCTFSGFSLSTYGMGVGWIRQPPGKALEWLANIWWDDDKYYNPSLKNRLTISKDTSKNQVVLTMTNMDPVDTATYYCARIESIGTTYSFDYWGQGTMVTVSSASTKGPSVFPLAPSSKSTSGGTAALGCLVKDYFPEPVTVSWNSGALTSGVHTFPAVLQSSGLYSLSSVVTVPSSSLGTQTYICNVNHKPSNTKVDKKVEPKSCDKTHTCPPCPAPEAAGGPSVFLFPPKPKDTLMISRTPEVTCVVVDVSHEDPEVKFNWYVDGVEVHNAKTKPREEQYNSTYRVVSVLTVLHQDWLNGKEYKCKVSNKALPAPIEKTISKAKGQPREPQVYTLPPSREEMTKNQVSLTCLVKGFYPSDIAVEWESNGQPENNYKTTPPVLDSDGSFFLYSKLTVDKSRWQQGNVFSCSVMHEALHNAYTQKSLSLSPGK
light: DTVLTQSPATLSLSPGERATLSCRASESVSTHMHWYQQKPGQAPRLLIYGASNLESGVPARFSGSGSGTDFTLTISSLEPEDFAVYFCQQSWNDPFTFGQGTKLEIKRGGSGGGGSGEFVLTQSPGTLSLSPGERATLSCERSSGDIGDSYVSWYQQKPGQAPRLVIYADDQRPSGIPDRFSGSGSGTDFTLTISRLEPEDFAVYYCQSYDINIDIVFGGGTKVEIKRTVAAPSVFIFPPSDEQLKSGTASVVCLLNNFYPREAKVQWKVDNALQSGNSQESVTEQDSKDSTYSLSSTLTLSKADYEKHKVYACEVTHQGLSSPVTKSFNRGEC
notes: DVD-Ig; outer hBDB-4G8.3 (VEGF), linkers GS-H10/GS-L10, inner hBDI-9E8.4 (PDGF); human IgG1 L234A, L235A, H435A / kappa; also called 4G8.3-GS-9E8.4 (g); hu VEGF 4G8.3-GS-hu PDGF 9E8.4 (germline) [hu IgG1/k]; LALA H435A
[1]
  Kd: 0.013 nM
  kon: 6e+06 M⁻¹ s⁻¹
[2]
  Kd: 0.013 nM
  kon: 1.3e+07 M⁻¹ s⁻¹

B6: 4G8.5_GS_9E8.4 (PR-1612489) (bispecific antibody, human IgG1, kappa, L234A L235A)
heavy: EIQLVQSGSELKKPGASVKVSCKASGYTFTNYGMYWVRQAPGQGLEYMGWINTETGKPTYADDFKGRFVFSLDTSVSTAYLQISSLKAEDTAVYFCARTNYYYRSYIFYFDYWGQGTMVTVSSGGGGSGGGGSEVTLRESGPALVKPTQTLTLTCTFSGFSLSTYGMGVGWIRQPPGKALEWLANIWWDDDKYYNPSLKNRLTISKDTSKNQVVLTMTNMDPVDTATYYCARIESIGTTYSFDYWGQGTMVTVSSASTKGPSVFPLAPSSKSTSGGTAALGCLVKDYFPEPVTVSWNSGALTSGVHTFPAVLQSSGLYSLSSVVTVPSSSLGTQTYICNVNHKPSNTKVDKKVEPKSCDKTHTCPPCPAPEAAGGPSVFLFPPKPKDTLMISRTPEVTCVVVDVSHEDPEVKFNWYVDGVEVHNAKTKPREEQYNSTYRVVSVLTVLHQDWLNGKEYKCKVSNKALPAPIEKTISKAKGQPREPQVYTLPPSREEMTKNQVSLTCLVKGFYPSDIAVEWESNGQPENNYKTTPPVLDSDGSFFLYSKLTVDKSRWQQGNVFSCSVMHEALHNAYTQKSLSLSPGK
light: ATQLTQSPSLSASVGDRVTITCRASESVSTHMHWYQQKPGKQPKLLIYGASNLESGVPSRFSGSGSGTDFTLTISSLQPEDFATYFCQQSWNDPFTFGQGTKLEIKGGSGGGGSGGEFVLTQSPGTLSLSPGERATLSCERSSGDIGDSYVSWYQQKPGQAPRLVIYADDQRPSGIPDRFSGSGSGTDFTLTISRLEPEDFAVYYCQSYDINIDIVFGGGTKVEIKRTVAAPSVFIFPPSDEQLKSGTASVVCLLNNFYPREAKVQWKVDNALQSGNSQESVTEQDSKDSTYSLSSTLTLSKADYEKHKVYACEVTHQGLSSPVTKSFNRGEC
notes: DVD-Ig: outer hBDB-4G8.5 (VEGF), inner hBDI-9E8.4 (PDGF), linkers GS-H10/GS-L10(dR); Human IgG1 L234A, L235A, H435A with kappa
[3]
  Kd: 0.0085 nM
  kon: 5.4e+06 M⁻¹ s⁻¹
[4]
  Kd: 0.028 nM
  kon: 5.8e+06 M⁻¹ s⁻¹

B7: 4G8.5_GS_3E2.1 (PR-1610560) (bispecific antibody, human IgG1, kappa, L234A L235A)
heavy: EIQLVQSGSELKKPGASVKVSCKASGYTFTNYGMYWVRQAPGQGLEYMGWINTETGKPTYADDFKGRFVFSLDTSVSTAYLQISSLKAEDTAVYFCARTNYYYRSYIFYFDYWGQGTMVTVSSGGGGSGGGGSEVQLVQSGAEVKKPGSSVKVSCKASGYTFTESYMYWVKQAPGQGLELIGRIDPEDGSTDYVEKFKNKATLTADKSTSTAYMELSSLRSEDTAVYFCARFGARSYFYPMDAWGQGTTVTVSSASTKGPSVFPLAPSSKSTSGGTAALGCLVKDYFPEPVTVSWNSGALTSGVHTFPAVLQSSGLYSLSSVVTVPSSSLGTQTYICNVNHKPSNTKVDKKVEPKSCDKTHTCPPCPAPEAAGGPSVFLFPPKPKDTLMISRTPEVTCVVVDVSHEDPEVKFNWYVDGVEVHNAKTKPREEQYNSTYRVVSVLTVLHQDWLNGKEYKCKVSNKALPAPIEKTISKAKGQPREPQVYTLPPSREEMTKNQVSLTCLVKGFYPSDIAVEWESNGQPENNYKTTPPVLDSDGSFFLYSKLTVDKSRWQQGNVFSCSVMHEALHNAYTQKSLSLSPGK
light: ATQLTQSPSLSASVGDRVTITCRASESVSTHMHWYQQKPGKQPKLLIYGASNLESGVPSRFSGSGSGTDFTLTISSLQPEDFATYFCQQSWNDPFTFGQGTKLEIKGGSGGGGSGGETVLTQSPATLSLSPGERATLSCRASESVSTLMHWYQQKPGQQPRLLIYGASNLESGVPARFSGSGSGTDFTLTISSLEPEDFAVYFCQQSWNDPWTFGGGTKVEIKRTVAAPSVFIFPPSDEQLKSGTASVVCLLNNFYPREAKVQWKVDNALQSGNSQESVTEQDSKDSTYSLSSTLTLSKADYEKHKVYACEVTHQGLSSPVTKSFNRGEC
notes: DVD-Ig: outer hBDB-4G8.5 (VEGF), inner hBFU-3E2.1 (PDGF), linkers GS-H10/GS-L10(dR); Human IgG1 L234A, L235A, H435A with kappa
[3]
  Kd: 0.0087 nM
  kon: 4.8e+06 M⁻¹ s⁻¹
[4]
  Kd: 0.013 nM
  kon: 4.1e+07 M⁻¹ s⁻¹
